Data reported in patent US7476500.

Tests used:
Experiment in all cases: cell_activity
I-ScaI I250N I250N = conditions: three site copies in pBar2, E. coli
I-ScaI = conditions: three site copies in pBar2, E. coli
I-ScaI D90S D90S = conditions: catalytically inactive, background; binding not tested

Sequence: TGAGGTGCACTAGTTA (double strand) [I-ScaI site]
- activity (I-ScaI I250N I250N): 27 % survival
- activity (I-ScaI): 65 % survival
- activity (I-ScaI D90S D90S): 18 % survival
